Results from the DeepSol protein solubility set.

Test: soluble on expression in E. coli; label from the status in PepcDB or PDB records

Sequence	soluble on expression in E. coli
MGSDKIHHHHHHMHLTKTWLAQLPLTDIQQVQPVSGGDINAAFQIITRHHQYFLKVQPHNDVTFFDHEVAGLRLLGAVTKTPRVIASGTIATDGYLLLDWLATGTGSQSALGAAVAKVHHQHHAQFGLDHDFTAGKLPKINHWQTDWATFYTQQRLDVLVNLAKEHHLWSETREMHYHRLRQQLLQDSHMHTVKPSLLHGDLWSGNYLFDTTGTPVLIDPDVFYGDREMDLAMTTIFGGFDTDFYQAYQAAYPVAPGMQDRLPSYQLYYLLAHLNLFGETYGPAVDRILMQY	not soluble
MGSDKIHHHHHHMHVGRENSSFQICNSSQDIRKSDILDAMSIRFRQLQAFHATFETGTVTGAATLLGISQPGISNLLAQLERETRFKLFERVKGRLIPTPEAGVLYQEVDTVVRGLDHVGQAVTDLQNKQGGQLQVASQHAMSFGFMPKLIAQFAKTRPDMSISFQSQYSSKVQEWVMSGLFEIGVCETPQLYDALDTHPFQVEMQLTLHPDNPLARHDILTPELCGAEPFIVMGPDHMTHRRTREAFHTAGVPWNTRVHTHLFKNMLSFVQEDMGVAILDPFLLDHDESGSFVTRPFAPAIHMDMMVITSATRPLSTLALDFLDLLLTGIAQSDRRRVSPSNAAPGRPPLPMAAR	not soluble
MGSDKIHHHHHHMHYNDQGADFKYLIVNERDKRFGLSVTTVGFQAIRAGSVYPPRNHPDAYYFTAQKGRVLHEYQLVYITKGRGTFASDTTPSVDISKGQILFLFPGQWHTYAPLQKTGWNEYYIGFEGPIIDNLVKNSFISKESQILDIGINEELASLFARALEVAEADKTAAQQYLSGIVLHIMGAVLAISQNKRYEVDNAAQKIESAKIIMHENVYKDIDPEELAMKLGISYSWFRKVFKEYTGYAPAKYFQELKLRKAKQLLIESSMSVKEICYELNYTSTEHFFSVFKKRTNFTPTEYRNFGRGGKEKENENE	not soluble
MGSDKIHHHHHHMIATTIAMDFCQTVTPSEIATVIDSYARGWFLMADEDSSDLGWYRSRDRCLIPLDNRFRYPRSLRRVLNQQRFEFAISRDFLGTIAGCADRPSTWISDELAEIYQQLQRYGWALSWEAWQGDRLVGGILGVAIGSLFIGESMFYHEPEASKAALVTLVQALQQGGWQVFDVQLTNPHLERFGSFCVSDRQYSAQIQTAIARPAKLVTPTGDRFASQPHSSAASDHG	not soluble
MGSDKIHHHHHHMIEDNMKLKTGIPALDRILGGGFEKGCNIALVGGMDNDHILLTHQLTNAFLSSGKKVLLVELRQDPASLIKWLSQYNINYEEYLEDGDLKILDGFSNLYSPASISGPDVLPNPLDLGITTAIIRDNVSKEKYDILVFDDITSLYALQTDYKAYVRVIVRLTNSIRKLGASSLVAINSDVLSIQDLSMILMPFEYLIEIREGMIRFKRSFSFINVPGVPYVKTNKGIIPIEDVLKDAVSIRDSLVLTSDGVLKLGEGRVQLIGETSERSLIEFVYRFLGPEKGREFLYGWGRHEVEHLEIPKIESVEEIKEILEEAFEVTRSTGGGILRIVEATKDIIIVEGKNLFPHIRNFPYPAHVHYAGYMAKLLEKATGERWEGEEIKCESQTNDKCIFILRRV	not soluble
MGSDKIHHHHHHMIEELAREIVKRFPRNHKETDPFRVLISTVLSQRTRDENTEKASKKLFEVYRTPQELAKAKPEDLYDLIKESGMYRQKAERIVEISRILVEKYGGRVPDSLEELLKLPGVGRKTANIVLWVGFKKPALAVDTHVHRISNRLGWVKTRTPEETEEALKKLLPEDLWGPINGSMVEFGRRICKPQNPLCEECFLKNHCEFYRRRGKGEVRNRTER	not soluble
MGSDKIHHHHHHMIEQQMPFRRILLTSDTFQILKEGQIISTFNKCGIFYCQRGSVEVSLEGCHYHIKPGDVYIYMASTLVHLLHKSEDAEGIMVEVDFYYILPIVNKVINVESQLFMRKNPCVSLSGEQCAHFEYLLNNLWDRINAEDCQKENVQYQHLKLELIKSMGQTICYEILNMYFTNQPLQPLQQGKKDVVFQNFMLSLFRFYRKERDVSFYARMQHITPRYFSAIIKEKTGDSALQWIVRMVITEAKQLLEESDLSIKEIADQLNFPTQSFFGKYFKQYVGVSPKEYRNNAATTRIKR	not soluble
MGSDKIHHHHHHMIFIPPFEQGKLLRRYKRFLADVLLDDGTEITIHCPNTGSMRNCLFPGERVWFSTSDNPKRKYAHTWEQAASDEGHIIGINTGRANALAAEAIEAGVISELTGYDRLRREVKYGSENSRIDLLLESEDKPACYIEVKSCTLLEQGQGYFPDAVTTRGQKHLRELMEMVKQGHRAVLLFVVQHTGITTVAAARHIDPEYAELLTQAHQAGVEILAYSCELSPSAAKLIKSCPVKL	not soluble
MGSDKIHHHHHHMIGDMNELLLKSVEVLPPLPDTVSKLRKYVSEANSNIETMKVAEIISSDPLMTAKLLQLANSPYYGFTREITTINQVITLLGVGNIINIVMADSIRDNFKIDVSPYGLNTQNFLKTCNEEATFIANWLNDEDKKLSHLLVPCAMLLRLGIVIFSNFLIQNHKDKDFLAFLNKNENLALAENEFLGVDHISFLGFLLHRWNFDDVLIESICFVRTPHAAREKVKKSAYALAITDHLFAPHDGSSPFNAKAAVALLKEAKTQGINFDLNNLLSKLPNKAKENLNKED	soluble
MGSDKIHHHHHHMIGHVPVGSSAPVVVQSMTNTDTADAAATVRQVYELWRAGSEIVRITVNSPEAAAQVGAIRRQLDDLGCNVPLVGDFHFNGHRLLAQYPDCAEALAKYRINPGNVGKGSKRDEQFSAMIKAAIDYNKPVRIGVNWGSLDQAKMARMMDENSKRAAPLAADALMREMLIQSALENAAAAEELGLPSDRIIISCKVSAVQDLIKVYRDLGSRCDYPLHLGLTEAGMGSKGIVASTAALSVLLQDGIGDTIRVSLTPEPGESRTKEVVVAQEILQTMGIRSFTPLVTACPGCGRTTSTFFQELAQKIQHYLRDQMPVWRSQYPGVENMSVAVMGCVVNGPGESKLANIGISLPGTGEVPVAPVYVDGEKTVTLKGERIADDFKVIVEEYVRVNYAEGGRLRQQGTGTGLKTIPLKAI	not soluble
MGSDKIHHHHHHMIGYGLPMPNQAHFSASFARPSTPAAKCMHHIRLGQQLIRNELVEATGLSQPTVTRAVTALMQAGLVRERPDLTLSSGPGRPNIPLELAPSPWIHAGVAIGTKSSYVALFDTKGRTLRDAMLEISAADLDPDTFIEHLIAGVNRLTTGLDLPLVGIGVATSGKVTNAGVVTASNLGWDGVDIAGRLNYQFSVPATVASAIPAIAASELQASPLPHPEQPTPITLTFYADDSVGAAYSNDLGVHVIGPLATTRGSGLDTLGMAAEDALSTQGFLSRVSDQGIFANSLGELVTIAKDNETAREFLNDRATLLAHTAAEAAETVKPSTLVLSGSAFSEDPQGRSVFASQLKKEYDADIELRLIPTHRENVRAAARAVALDRLLNEPLTLVP	not soluble
MGSDKIHHHHHHMIHKLADVQSQNIGDNTKVWQFCVILAGAVIGRNCNICANSLIENDVVIGDNVTIKSGVQIWDGIHIQDDVFIGPNVTFTNDKQPRSKIYPDEYLKTIVKKGASIGANSTILPGILIGENAMVGAGAVITKNVPDNAIVIGNPGRITGYVEANTGVIMPSNNFELKLQMSKVKGVSLHKFHLVNDLRGNLSVGEFEKDIPFTPKRYFTVFGVPNKEVRGEHAHKECKQFLICVSGNCSVLVDDGENREEYVLDSIDKGIYLPPMTWGVQYKYSKDAVLLVFASHYYDSDDYIRDYSTFKQMRQN	not soluble
MGSDKIHHHHHHMIIKNAKIYGDSLQDIEIKEGKITNIDSNLQGEEILDAKGMTLLPSFVDLCVSLKNDKFSLANLELLENECLKGGISSIVLRDCMDFDEESFALFLQNLAQRKMQIFSSVRVKDANGKLKNLATLLNKGACALELDSSLDANTLKVSSQYAFMKDSPIFVRCYDKDFDDNGVMNDCEMSFELGLIGMSKIAETSQIAKMKELAKFYKNKVIFDLLSLKDSLVLLDEKDLKLVSIHHLIKDDSACEDFNTAAKLMPPLRSKEDVLALREVLKEGKISFLTSLHSAKSISLKDLAFDEAAFGIHSVCEFISLCYTFLIKEGFLNWQELCRFTSKNPSEFLGLNSGVIEVGKEANLVLFDENEEIFAPKSSLYSEDKLFGKIKMHIIKGKNILEK	not soluble
MGSDKIHHHHHHMIIMIPFKSMRDQAGLNRQHIFDLARLPPDLLAPLDLGQHERQLILLGHAGRLLWERVQKHATDPVHPIDSYTIGVVEQWAALALPHTRIRFVYPRGLPANRHVGLQRLGTLAGWHHPSPFMVGIDARWGSWFAYRAAIIVDSELPASPVEDHGHPCVDCTAKPCIGTCPASALDSGTMDMNACTASGSLKPRPARTAAWRDRPAL	not soluble
MGSDKIHHHHHHMIIMTYYTFVKPFFIKAVTHLHVSSGTSVEEEVDLPFQRDELNYPTIFASSLKGAIKSFLLKEYSNAREIIYKVLGSDENPDEASLGSFLDAVLFAIPARSIGVSGLDEAWVYVTTYELLRKVKSLLESMNTLSATQFTSLLDAINNILQESKNLIISDNAASVILNEDFYVELSNIQNEYIQSLLGDMLIENSTYNQSNQNSQSQGNHLVKPLIVLKDSIGREVINRSLIRVRRIKIKRSSKTVEEGGLWSEEYVPVNSLFFSSFLARGSKDTAYFADCILRKTRYLILGGKETIGKGIVELRWLND	not soluble
MGSDKIHHHHHHMIINKHVMRSTNEKQVLQQVINEGPISRSQISRNLSLNKVTVSDIYNQLLRTQFIKEIGCGVSTKNGGRKPVMAELNVNYGFVASIDMTADAVKLMYSRLNGKILHFQSFKTSDMTLTDVIDLIEDQLRNVDDYGTIHGLMGVAIALDGIIYENKILKTPIKGLTHFDLAKYLRDKLRIPVVLEKKANLTAVFERDFHDNEIFDNVVSVVVRDQIHAGIVADSRLYSGHEGEAGEVGTALLEDRHVEDHLASVNDYASEKALWARLKAIKHVERLDLTTVKHDYINHDPEVTKVFDDFVYYLSKVIANVSTAFAPDVVVLNTTVLEILPQLLTNVRESTAKLTSPSRQVPIIATKNVQSAALLGGASVIIHQALGLESLKMQFS	not soluble
MGSDKIHHHHHHMIIRKICTTLPVILPEPETIMTVTRPRAERGAFPPGTEHYGRSLLGAPLIWFPAPAASRESGLILAGTHGDENSSVVTLSCALRTLTPSLRRHHVVLCVNPDGCQLGLRANANGVDLNRNFPAANWKEGETVYRWNSAAEERDVVLLTGDKPGSEPETQALCQLIHRIQPAWVVSFHDPLACIEDPRHSELGEWLAQAFELPLVTSVGYETPGSFGSWCADLNLHCITAEFPPISSDEASEKYLFAMANLLRWHPKDAIRPS	not soluble
MGSDKIHHHHHHMIIVAGTPGAGKTSVMTHTIKQLLNKGNKPAVVKIDCLYTDDDTRYGKLKIPTLVGLSKDMCPDHFAIYNLEEMAEWAEKEGVDTLIIETAGLCHRCAPYTKNSLGICVIDATSGPNTPRKVGPFLTSADVVAITKGDIISQAEREVFRERVLEMNPKCTIYDVNGLSGQGCAEISEEIMEAKDIVDLENEELRHNAPLCVCTLCVGETKVAKKHHRGVLRRIDGFTKYVGE	not soluble
MGSDKIHHHHHHMIKGIGTNVDTRRVNGSIKRLVSELEFFKSIGFDYVEIPAAGLDVIARGRIIRKRLERVKELLSNYNFRYTVHAPDVINLKIKTNPWHYRVMEATIEFAGEINAEVVVYHYGEVDHSIDVPERVQRKAEIVALRELADLAKEKGVVIGVENVGHPVSEVLKLVRAVNHPNVKLVIDVGHLFIVSNYTGIDFYDELKKGLPYAVELHLSDNFGESPQTYQKIPDVEAFRFVYGIGDLHLPIGEGDIPYNKVFRIIRESGFDGIVILEINSMDRFADEYADSLNLLRKRLILAADNNKTKKRRKVK	not soluble
